Five molecules from paper PMC4569481, “Pseudomonas aeruginosa Uses Dihydrolipoamide Dehydrogenase (Lpd) to Bind to the Human Terminal Pathway Regulators Vitronectin and Clusterin to Inhibit Terminal Pathway Complement Attack” (PLoS ONE, 2015) can be followed below.

First the molecules themselves.
B1: Dihydrolipoamide dehydrogenase (Lpd) of P. aeruginosa, recombinant full length (Lpd^1-478) (natural protein)
chain: MSQKFDVVVIGAGPGGYVAAIRAAQLGLKTACIEKYIGKEGKVALGGTCLNVGCIPSKALLDSSYKYHEAKEAFKVHGIEAKGVTIDVPAMVARKANIVKNLTGGIATLFKANGVTSFEGHGKLLANKQVEVTGLDGKTQVLEAENVIIASGSRPVEIPPAPLTDDIIVDSTGALEFQAVPKKLGVIGAGVIGLELGSVWARLGAEVTVLEALDKFLPAADEQIAKEALKVLTKQGLNIRLGARVTASEVKKKQVTVTFTDANGEQKETFDKLIVAVGRRPVTTDLLAADSGVTLDERGFIYVDDHCKTSVPGVFAIGDVVRGAMLAHKASEEGVMVAERIAGHKAQMNYDLIPSVIYTHPEIAWVGKTEQTLKAEGVEVNVGTFPFAASGRAMAANDTTGLVKVIADAKTDRVLGVHVIGPSAAELVQQGAIGMEFGTSAEDLGMMVFSHPTLSEALHEAALAVNGHAIHIANRKKR
notes: On the gel two bands, 57 and 50 kDa
B4: clusterin, purified from human plasma (natural protein)
chain 1: DQTVSDNELQEMSNQGSKYVNKEIQNAVNGVKQIKTLIEKTNEERKTLLSNLEEAKKKKEDALNETRESETKLKELPGVCNETMMALWEECKPCLKQTCMKFYARVCRSGSGLVGRQLEEFLNQSSPFYFWMNGDRIDSLLENDRQQTHMLDVMQDHFSRASSIIDELFQDRFFTREPQDTYHYLPFSLPHRRPHFFFPKSRIVR
chain 2: SLMPFSPYEPLNFHAMFQPFLEMIHEAQQAMDIHFHSPAFQHPPTEFIREGDDDRTVCREIRHNSTGCLRMKDQCDKCREILSVDCSTNNPSQAKLRRELDESLQVAERLTRKYNELLKSYQWKMLNTSSLLEQLNEQFNWVSRLANLTQGEDQYYLRVTTVASHTSDSDVPSGVTEVVVKLFDSDPITVTVPVEVSRKNPKFMETVAEKALQEYRKKHREE
notes: Disulfide-linked heterodimer of one alpha and one beta chain of 40 kDa each; In the MST experiment labelled with NT-647 RED-NHS; source: bought: BioVision, purified from human plasma; copies: 1 + 1
B5: vitronectin, monomeric, purified from human plasma (natural protein)
chain: DQESCKGRCTEGFNVDKKCQCDELCSYYQSCCTDYTAECKPQVTRGDVFTMPEDEYTVYDDGEEKNNATVHEQVGGPSLTSDLQAQSKGNPEQTPVLKPEEEAPAPEVGASKPEGIDSRPETLHPGRPQPPAEEELCSGKPFDAFTDLKNGSLFAFRGQYCYELDEKAVRPGYPKLIRDVWGIEGPIDAAFTRINCQGKTYLFKGSQYWRFEDGVLDPDYPRNISDGFDGIPDNVDAALALPAHSYSGRERVYFFKGKQYWEYQFQHQPSQEECEGSSLSAVFEHFAMMQRDSWEDIFELLFWGRTSAGTRQPQFISRDWHGVPGQVDAAMAGRIYISGMAPRPSLAKKQRFRHRNRKGYRSQRGHSRGRNQNSRRPSRATWLSLFSSEESNLGANNYDDYRMDWLVPATCEPIQSVFFFSGDKYYRVNLRTRRVDTVDPPYPRSIAQYWLGCPAPGHL
notes: vitronectin, human, purified from plasma; In the MST experiment labelled with NT-647 RED-NHS; Plasma vitronectin circulates as variants of 75 and 65 kDa; also called Vn; full-length vitronectin; source: bought: Corning, purified from human plasma

Common to all, as to conditions: both partners purified
One experiment deals with T1, Factor H (human, UniProt P08603 19-1231).
T1 construct: complement Factor H, human; source: bought: Complement Technology
T1 sequence (P08603 19-1231): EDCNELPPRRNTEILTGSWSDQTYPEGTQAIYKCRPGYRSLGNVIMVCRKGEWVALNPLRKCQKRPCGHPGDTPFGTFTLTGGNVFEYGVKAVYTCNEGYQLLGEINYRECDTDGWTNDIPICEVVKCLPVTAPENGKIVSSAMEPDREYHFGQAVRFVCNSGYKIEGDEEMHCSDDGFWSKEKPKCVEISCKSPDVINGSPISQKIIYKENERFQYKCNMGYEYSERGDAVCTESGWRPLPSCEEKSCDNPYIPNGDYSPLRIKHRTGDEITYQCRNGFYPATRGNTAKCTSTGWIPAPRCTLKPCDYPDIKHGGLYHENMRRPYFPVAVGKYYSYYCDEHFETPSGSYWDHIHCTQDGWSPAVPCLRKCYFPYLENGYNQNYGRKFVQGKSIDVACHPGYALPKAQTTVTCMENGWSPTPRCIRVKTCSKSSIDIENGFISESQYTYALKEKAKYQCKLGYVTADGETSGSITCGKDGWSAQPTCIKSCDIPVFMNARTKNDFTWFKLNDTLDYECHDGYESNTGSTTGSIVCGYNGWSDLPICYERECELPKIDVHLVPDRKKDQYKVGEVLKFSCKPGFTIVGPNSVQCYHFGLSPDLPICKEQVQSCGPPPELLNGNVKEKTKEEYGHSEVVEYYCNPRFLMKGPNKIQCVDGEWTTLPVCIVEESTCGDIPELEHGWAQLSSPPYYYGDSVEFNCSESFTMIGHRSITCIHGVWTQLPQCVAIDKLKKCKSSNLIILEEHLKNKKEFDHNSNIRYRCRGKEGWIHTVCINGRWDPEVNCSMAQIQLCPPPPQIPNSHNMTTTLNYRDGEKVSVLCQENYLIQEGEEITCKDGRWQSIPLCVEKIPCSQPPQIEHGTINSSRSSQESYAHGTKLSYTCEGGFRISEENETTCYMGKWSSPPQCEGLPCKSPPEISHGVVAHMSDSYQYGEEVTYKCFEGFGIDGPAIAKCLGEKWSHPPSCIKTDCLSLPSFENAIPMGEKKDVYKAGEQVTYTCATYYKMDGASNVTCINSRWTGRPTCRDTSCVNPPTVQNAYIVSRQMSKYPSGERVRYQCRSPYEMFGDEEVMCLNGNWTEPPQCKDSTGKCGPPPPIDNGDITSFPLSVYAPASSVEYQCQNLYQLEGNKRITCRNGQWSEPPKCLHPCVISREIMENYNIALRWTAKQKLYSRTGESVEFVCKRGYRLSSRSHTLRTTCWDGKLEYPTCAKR
In words: ELISA; two human ligands added together to immobilized Lpd, one at a constant concentration (vitronectin 5 μg/ml, clusterin 2.5 μg/ml, Factor H 5 μg/ml or plasminogen 5 μg/ml), the other at increasing concentrations; each detected with its own antibody. Background: An ELISA detects its analyte on a solid surface through an enzyme-linked reagent.

The target in experiment [1] is B5. In words: ELISA; equimolar amounts (13.3 nM) of full length Lpd and Lpd deletion mutants immobilized on microtiter plates; vitronectin or clusterin added; bound ligand quantified with antibodies.
The target of experiment [2] is B4. The experiment is described as above.
The target of experiment [3] is B1. In words: MST; fluid phase; NT-647-labeled vitronectin (50 nM) or clusterin (25 nM) mixed with Lpd in 1:2 dilutions (0.001 to 50 μM); 50 mM Tris-HCl pH 7.6, 150 mM NaCl, 10 mM MgCl2, 0.05% Tween-20; RT; 50% LED power, 80% MST power.
Experiment [4] concerns the target B1. Description: ELISA; two human ligands added together to immobilized Lpd, one at a constant concentration (vitronectin 5 μg/ml, clusterin 2.5 μg/ml, Factor H 5 μg/ml or plasminogen 5 μg/ml), the other at increasing concentrations; each detected with its own antibody.
Experiment [5] concerns the target Lpd deletion mutant Lpd^141-478 (P. aeruginosa strain PAO1, UniProt Q9I3D1 141-478). Description: ELISA; equimolar amounts (13.3 nM) of full length Lpd and Lpd deletion mutants immobilized on microtiter plates; vitronectin or clusterin added; bound ligand quantified with antibodies.
Experiment [6] has as its target Lpd deletion mutant Lpd^264-478 (P. aeruginosa strain PAO1, UniProt Q9I3D1 264-478). The description is as above.
In experiment [7] the target is T2, Lpd deletion mutant Lpd^1-160 (P. aeruginosa strain PAO1, UniProt Q9I3D1 1-160).
T2 construct: Dihydrolipoamide dehydrogenase (Lpd), P. aeruginosa strain PAO1, residues 1-160; also called Lpd^1-160: 20 kDa; N-terminal Lpd^1-160
The description is as above.

For the molecule B1, the binding result with Factor H is on record as “binds”.

B2: Lpd deletion mutant Lpd^1-382 (domain or fragment, P. aeruginosa strain PAO1, UniProt Q9I3D1 1-382, looked up)
chain: MSQKFDVVVIGAGPGGYVAAIRAAQLGLKTACIEKYIGKEGKVALGGTCLNVGCIPSKALLDSSYKYHEAKEAFKVHGIEAKGVTIDVPAMVARKANIVKNLTGGIATLFKANGVTSFEGHGKLLANKQVEVTGLDGKTQVLEAENVIIASGSRPVEIPPAPLTDDIIVDSTGALEFQAVPKKLGVIGAGVIGLELGSVWARLGAEVTVLEALDKFLPAADEQIAKEALKVLTKQGLNIRLGARVTASEVKKKQVTVTFTDANGEQKETFDKLIVAVGRRPVTTDLLAADSGVTLDERGFIYVDDHCKTSVPGVFAIGDVVRGAMLAHKASEEGVMVAERIAGHKAQMNYDLIPSVIYTHPEIAWVGKTEQTLKAEGVEVNV
notes: Dihydrolipoamide dehydrogenase (Lpd), P. aeruginosa strain PAO1, residues 1-382; also called Lpd^1-382: 53 kDa
On to B2, for which the binding result in experiment [1] and in experiment [2] was “binds” in each case.

B3: Lpd deletion mutant Lpd^1-287 (domain or fragment, P. aeruginosa strain PAO1, UniProt Q9I3D1 1-287, looked up)
chain: MSQKFDVVVIGAGPGGYVAAIRAAQLGLKTACIEKYIGKEGKVALGGTCLNVGCIPSKALLDSSYKYHEAKEAFKVHGIEAKGVTIDVPAMVARKANIVKNLTGGIATLFKANGVTSFEGHGKLLANKQVEVTGLDGKTQVLEAENVIIASGSRPVEIPPAPLTDDIIVDSTGALEFQAVPKKLGVIGAGVIGLELGSVWARLGAEVTVLEALDKFLPAADEQIAKEALKVLTKQGLNIRLGARVTASEVKKKQVTVTFTDANGEQKETFDKLIVAVGRRPVTTDLL
notes: Dihydrolipoamide dehydrogenase (Lpd), P. aeruginosa strain PAO1, residues 1-287; also called Lpd^1-287: 37 kDa
Regarding B3, the binding result in experiment [1] was “binds”.
As for B4, the Kd in experiment [3] was determined as 0.654 ± 0.054 µM.
In the case of B5, the “percent reduction of Factor H binding to Lpd by vitronectin at four-fold molar excess” value in experiment [4] was determined as 37%. Further, the “percent reduction of binding (ELISA signal)” value in experiment [5] was 47%; in experiment [6] it was 47%; in experiment [7] it was 51%. For the same molecule, the Kd in experiment [3] is 0.6 ± 0.05 µM.

What is called Kd is the free concentration of one partner at which half of the binding sites on the other are occupied at equilibrium, for simple one-to-one binding.
